Assay results: article PMC7018383

Biological target: β2B (UniProt Q08289)
Assay: flow-cytometric FRET 2-hybrid

Rad, sequence (O88667 whole entry, looked up, change not shown): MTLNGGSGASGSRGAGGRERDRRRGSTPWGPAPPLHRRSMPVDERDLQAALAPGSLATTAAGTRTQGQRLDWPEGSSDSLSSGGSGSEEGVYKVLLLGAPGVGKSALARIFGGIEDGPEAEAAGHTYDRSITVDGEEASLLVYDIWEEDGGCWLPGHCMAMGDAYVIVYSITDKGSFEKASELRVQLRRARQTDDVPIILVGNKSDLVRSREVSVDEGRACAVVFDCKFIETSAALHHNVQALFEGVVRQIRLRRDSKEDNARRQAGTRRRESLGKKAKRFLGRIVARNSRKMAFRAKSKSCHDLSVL

Rad (from UniProt O88667) 4-SA Rad, PKAcat co-expressed
other: Kd,EFF (FRET 2-hybrid, relative) (reference: 4-SA Rad, no PKAcat): same; reference 4346± 197

Rad (from UniProt O88667) WT Rad, PKAcat co-expressed
other: Kd,EFF (FRET 2-hybrid, relative) (reference: WT Rad, no PKAcat, sites S25,S38,S272,S300): weaker; reference 7957 ± 418

Rad (from UniProt O88667) 4-SA Rad with PKAcat
other: Kd,EFF (FRET 2-hybrid, relative) (reference: WT Rad with PKAcat, sites S25,S38,S272,S300): stronger; reference 145231 ± 3084
